Reference: PMC3947560

Target: ETV1 (ER81) 249-477 (UniProt P50549 249-477)
Assay: EMSA

Sequence of ETV1 (ER81) 249-477 (P50549 249-477): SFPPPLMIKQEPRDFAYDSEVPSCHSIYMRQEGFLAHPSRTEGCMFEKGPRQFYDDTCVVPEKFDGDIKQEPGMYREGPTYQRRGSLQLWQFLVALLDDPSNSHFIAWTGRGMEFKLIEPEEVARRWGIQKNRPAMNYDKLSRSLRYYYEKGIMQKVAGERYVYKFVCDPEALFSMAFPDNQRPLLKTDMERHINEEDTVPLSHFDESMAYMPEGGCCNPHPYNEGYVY

B1: ETS8/9 (PSA enhancer) (dsDNA)
DNA 1: CTTTACAAACATCCTTGAAACAACAATCCAGAA
DNA 2: TTCTGGATTGTTGTTTCAAGGATGTTTGTAA
Q: Does B1 bind?
A: binds
